We go through 6 molecules from paper PMC7162832, “An unusual metal-bound 4-fluorothreonine transaldolase from Streptomyces sp. MA37 catalyses promiscuous transaldol reactions” (Applied Microbiology and Biotechnology, 2020).

In data set [1] the target is 4-fluorothreonine transaldolase from Streptomyces sp. MA37 (Streptomyces sp. MA37) (UniProt W0W999). Briefly: SEC; ENrich High-Resolution Size Exclusion Column (Bio-Rad, 25 mL), isocratic elution; oligomeric state estimated from the retention time.
Data set [2] deals with T1, FTaseMA (Streptomyces sp. MA37, UniProt W0W903). Briefly: biochemical. More on the design: gene flFT1.
Text: acetaldehyde release, DNPH derivatisation and HPLC on FTaseMA
For data set [3], the target named is T1, FTaseMA. Put plainly: DNPH derivatisation and HPLC. Type of data set: biochemical. Details: gene flFT1; full-length (SHMT-like S domain plus aldolase-like A domain), N-His6, from MA37 genomic DNA in pGM1190 (pMBC001), expressed in Streptomyces lividans 66; dimer.
The next data set concerns O=CCCl. Briefly: purified protein. The settings on record: L-threonine 5 mM, PLP 0.1 mM, Tris-HCl pH 7.5.
The test system of another data set is O=CCF. Briefly: purified protein. As to conditions: apparent, FAd 0.12-2.4 mM, L-threonine 20 mM (methods: 0.5-20 mM aldehyde, 5 mM L-Thr), PLP 0.1 mM, Tris-HCl pH 7.5.
The subject of another data set is CC(C)C=O. Put plainly: purified protein. The settings on record: L-threonine 5 mM, PLP 0.1 mM, Tris-HCl pH 7.5.
A further data set concerns O=CCc1ccccc1. Briefly: purified protein. The settings on record: L-threonine 5 mM, PLP 0.1 mM, Tris-HCl pH 7.5.

Broadly, the stoichiometry N is the number of molecules, sites or subunits per partner or assembly. As a reminder, the Km is the substrate concentration at which the rate is half of its maximum. In general, kcat refers to the maximal rate divided by the concentration of active sites. By kcat/Km is commonly meant the turnover number divided by the Michaelis constant.

In the case of “4-fluorothreonine transaldolase from Streptomyces sp. MA37 (from UniProt W0W999 1-299) (enzyme)”, the stoichiometry N in data set [1] is 2.

For the molecule `C[C@@H](O)[C@H](N)C(=O)O` [compound 6, L-threonine], the Michaelis constant (Km) on FTaseMA [2] was 1180 ± 7 µM.

For the molecule `O=CCO` [compound 9, glycolaldehyde], the Michaelis-Menten constant (Km) on FTaseMA [3] was determined as 357 ± 10 µM.

On to FTaseMA (Streptomyces sp. MA37), for which the Km came to 1350 ± 1 µM with O=CCCl, 241 ± 2 µM in the data set on O=CCF, 535 ± 78 µM in the data set on CC(C)C=O and 358 ± 6 µM in the data set with O=CCc1ccccc1. Also, the kcat in the data set with O=CCCl is 0.0238 s⁻¹; in the data set with O=CCF, 0.03 s⁻¹; in the data set with CC(C)C=O, 0.0135 s⁻¹; in the data set on O=CCc1ccccc1, 0.00975 s⁻¹. Moreover, the kcat/Km in the data set on O=CCCl worked out at 17.6 M⁻¹ s⁻¹; in the data set on O=CCF it was 125 M⁻¹ s⁻¹; in the data set with CC(C)C=O it was 25.4 M⁻¹ s⁻¹; in the data set with O=CCc1ccccc1 it was 27.2 M⁻¹ s⁻¹.

Take `C[C@H](O)[C@H](N)C(=O)O` [compound 19, L-allo-threonine]: the Km at FTaseMA [2] was 1180 ± 6 µM.

Take `CCC=O` [compound 11, propanal]: at FTaseMA [3], the Michaelis constant (Km) was determined as 1450 ± 179 µM.
